Source: US20230391828A1, “REGULATORS OF CELL DIVISION” (TECHNISCHE UNIVERSITÄT DRESDEN, priority 2020, published 2023)
“Also recorded” adds a separate entry of the source. Bridge positions count the residues as written; N and C are the ends. Square brackets hold non-standard residues; d marks the D form. 2Nal = N[C@@H](Cc1ccc2ccccc2c1)C(=O)O; R8 = C=CCCCCCC[C@@](C)(N)C(=O)O; S5 = C=CCCC[C@](C)(N)C(=O)O; Pra = C#CC[C@H](N)C(=O)O

Assays:
APC/C (APC11) = biological target: T1, APC/C (APC11) (Homo sapiens, UniProt Q9NYG5); assay: Pull-down binding assay in HeLa K cell extract, APC/C; details: Pra peptide clicked to azide agarose or magnetic beads, Western blot
T1 construct: endogenous in cells; host or cells: HeLa K cell extract
Procedure: (§1) For the protein transfer, the 0.45 μm Immobilon-FL PVDF membrane (Merck Millipore) was used. The membrane was activated in ethanol and then transferred to the Blotting buffer (50 mM SDS-MOPS, 50 mM Tris base, 0.1% SDS, 1 mM EDTA, 20% EtOH). The proteins were transferred using a wet transfer for 1.5 h at 400 mA. Subsequently, the membrane was incubated with the blocking solution, 10% milk in PBS-T (0.02% Tween-20 in PBS), for 1 h at room temperature. To detect proteins of the interest, the membrane was incubated with primary antibodies overnight at 4° C. Followed by washing the membrane 3 times 10 min with PBS-T and incubation with IRDye fluorescently labelled secondary antibodies for 1 h. Prior detection, the membrane was twice washed with PBS-T for 10 min and once with PBS for 10 min. The detection was done using the quantitative near-infrared scanning system Odyssey (LI-COR Biosciences).
HeLa K cell pellet was re-suspended in the extraction buffer (30 mM HEPES pH 7.5, 175 mM NaCl, 2.5 mM MgCl2, 0.25% NP40, 10% glycerol, 1 mM DTT) supplemented with 10 μM MG132 (VWR), 1 mM PMSF (Sigma-Aldrich), complete protease inhibitor cocktail (Roche) and PhosSTOP phosphatase inhibitors (Roche) and incubated for 20 min on ice, followed by centrifugation of cell debris for 15 min at 4° C. 16 100 g. In mean time, inhibitor molecules containing Propargyl (Pra) chemical group were covalently attached to the azide agarose or azide magnetic resin (Jena Bioscience) by Cu(I)-catalysed azide-alkyne cycloaddition reaction. Specifically, the inhibitor molecules were mixed with azide agarose resin in ratio 0.125 μmol inhibitor/25 μl agarose resin and azide magnetic resin in ratio 0.018 μmol inhibitor/20 μl magnetic resin. The reaction was catalysed by 1 mM CuSO4, 0.1 mM TBTA (Sigma-Aldrich) and 1 mM Sodium ascorbate and was performed on the rotating wheel for 30 min at room temperature in the volume of 1 ml. Subsequently, the resin was washed 5 times with the extraction buffer. The inhibitor-agarose resin was added to 1 mg of HeLa K cell extract and the inhibitor-magnetic resin was added to 0.5 mg of HeLa K cell extract followed by incubation at 4° C. for 2 h. Followed by washing the resin 5 times with the extraction buffer. Pull-down proteins were eluted by boiling for 15 min with 1×LDS sample buffer supplemented with 100 mM DTT (agarose resin) or by incubation with 1×LDS sample buffer for 10 min at room temperature followed by taking supernatant that was supplemented with 100 mM DTT and boiling it for 10 min. Samples were subjected to SDS PAGE and Western blot analysis.
HeLa K cell pellet was re-suspended in the extraction buffer (30 mM HEPES pH 7.5, 175 mM NaCl, 2.5 mM MgCl2, 0.25% NP40, 10% glycerol, 1 mM DTT supplied with complete protease inhibitor cocktail (Roche), PhosSTOP phosphatase inhibitors (Roche), 1 mM PMSF, 10 μM MG132) and incubated for 20 min on ice, followed by centrifugation to clear the lysate for 15 min at 4° C. 16,100 g. In the meantime, inhibitor molecules containing the propargyl-Gly-OH (Pra) chemical group were covalently attached to the azide agarose resin (Jena Bioscience) by Cu(I)-catalysed azide-alkyne cycloaddition reaction. Specifically, the inhibitor molecules were mixed with azide agarose resin in ratio 0.125 μmol inhibitor/20 μl agarose resin. The reaction was catalysed by 0.1 mM CuSO4, 0.5 mM THPTA (Sigma-Aldrich) and 5 mM Sodium ascorbate and was performed on the rotating wheel for 30 min at room temperature in the volume of 1 ml. […]

Cullin 1 = biological target: T2, Cullin 1 (Homo sapiens, UniProt Q13616); assay: Pull-down binding assay in HeLa K cell extract, Cullin 1; details: azide beads, Western blot
T2 construct: endogenous in cells; host or cells: HeLa K cell extract
Procedure: as §1
(§2) HeLa K cell pellet was re-suspended in the extraction buffer (30 mM HEPES pH 7.5, 175 mM NaCl, 2.5 mM MgCl2, 0.25% NP40, 10% glycerol, 1 mM DTT) supplemented with 10 μM MG132 (VWR), 1 mM PMSF (Sigma-Aldrich), complete protease inhibitor cocktail (Roche) and PhosSTOP phosphatase inhibitors (Roche) and incubated for 20 min on ice, followed by centrifugation of cell debris for 15 min at 4° C. 16 100 g. […]

RBX1 = biological target: T3, RBX1 (Homo sapiens, UniProt P62877); assay: Pull-down binding assay in HeLa K cell extract, RBX1; details: azide beads, Western blot
T3 construct: endogenous in cells; host or cells: HeLa K cell extract
Procedure: as §1, §2

APC/C = biological target: T4, APC/C (Homo sapiens, UniProt Q9NYG5); assay: In vitro APC/C ubiquitination assay driven by the E2 enzyme UBE2C, fluorophore-labelled securin substrate; assay type: biochemical; details: 100 μM, UBE2C, reaction time 45 min
T4 construct: made in house; host or cells: SF9 insect cells (baculovirus)
Procedure: Proteins were separated by SDS-PAGE electrophoresis using precast Bolt 4-12% Bis-Tris Plus protein gels (Thermo Fisher Scientific) and Criterion XT Bis-Tris Midi Protein Gels (Bio-Rad). In different experiments, various conditions were used: in vitro APC/C ubiquitination assays—165 V, 40 min, SDS-MES running buffer (50 mM MES, 50 mM Tris base, 0.1% SDS, 1 mM EDTA, pH 7.3; Thermo Fisher Scientific); in vitro APC/C ubiquitination assays determining KM—165V, 1 h, SDS-MOPS running buffer (50 mM MOPS, 50 mM Tris base, 0.1% SDS, 1 mM EDTA, pH 7.7; Thermo Fisher Scientific); pull-down binding assay—165 V, 35 min, SDS-MES running buffer.
APC/C-dependent ubiquitination reactions were performed at 30° C. in 30 mM HEPES pH 7.4, 175 mM NaCl, 8 mM MgCl2, 0.05% Tween-20, 1 mM DTT and 5% glycerol and contained 20 nM recombinant APC/C (note, for testing the first generation of inhibitors, APC/C and Cdc20 immunoprecipitated from mitotic HeLa K cells was used), 340 nM Cdc20, 46 nM GST-UBA1, 340 nM UBE2C (alternatively 400 nM UBE2D1, 280 nM UBE2S), 21 μM His6-ubiquitin or if it is indicated 21 μM methylated-ubiquitin (BostonBiochem), 2.6 mM ATP, 10 mM phosphocreatine and 11 μM creatine kinase. As substrates, 35 nM fluorophore-labeled ubiquitin-cyclin B and 50 nM fluorophore-labeled securin were standardly used (fluorophore IRDye 800CW (LI-COR) was used for labelling). In case of KM and kcat determination, 50, 100, 250, 500, 750, 1000, 1250, 2500 and 5000 nM fluorophore-labelled securin was used. The reaction was done in the volume of 15 μl, it was quenched after the indicated time with LDS sample buffer (Thermo Fisher Scientific) supplemented with 100 mM DTT and subjected to SDS-PAGE. Detection of fluorescently labelled substrates was done by quantitative near-infrared scanning system Odyssey.

hTERT RPE-1 cells = assay: Live cell imaging of hTERT RPE-1 cells; assay type: cell-based; details: hTERT RPE-1, 100 μM, imaged 12-24 h
Procedure: Automated time-lapse microscopy was performed using ImageXpress Micro XLS wide-field screening microscope (Molecular Devices) equipped with a 10×, 0.5 NA., 20×, 0.7 NA, and 40×, 0.95 NA Plan Apo air objectives (Nikon), a laser-based autofocus and a full environmental control (5% CO2, 37° C.). Cells were grown in 96-well plastic bottom plates (clear, Greiner Bio-One) and for live cell imaging media was changed to DMEM without phenol red and riboflavin (Thermo Fisher Scientific), supplemented with 10% (v/v) FBS, 1% (v/v) Glutamax, 1% (v/v) penicillin-streptomycin, and 0.5 μg/ml amphotericin B.
hTERT RPE-1 cells were seeded into 96-well plates (5000 cells) one day prior the treatment with compounds of the invention. Cells were treated with 100 μM of compound G2-6 and the negative control molecule G2-N2 and cell division was monitored by live cell imaging using ImageXpress Micro XLS wide-field screening microscope, images were acquired every 3 min for time courses of 12-24 h. The length of mitosis was determined manually.

T2 sequence (Q13616 whole entry): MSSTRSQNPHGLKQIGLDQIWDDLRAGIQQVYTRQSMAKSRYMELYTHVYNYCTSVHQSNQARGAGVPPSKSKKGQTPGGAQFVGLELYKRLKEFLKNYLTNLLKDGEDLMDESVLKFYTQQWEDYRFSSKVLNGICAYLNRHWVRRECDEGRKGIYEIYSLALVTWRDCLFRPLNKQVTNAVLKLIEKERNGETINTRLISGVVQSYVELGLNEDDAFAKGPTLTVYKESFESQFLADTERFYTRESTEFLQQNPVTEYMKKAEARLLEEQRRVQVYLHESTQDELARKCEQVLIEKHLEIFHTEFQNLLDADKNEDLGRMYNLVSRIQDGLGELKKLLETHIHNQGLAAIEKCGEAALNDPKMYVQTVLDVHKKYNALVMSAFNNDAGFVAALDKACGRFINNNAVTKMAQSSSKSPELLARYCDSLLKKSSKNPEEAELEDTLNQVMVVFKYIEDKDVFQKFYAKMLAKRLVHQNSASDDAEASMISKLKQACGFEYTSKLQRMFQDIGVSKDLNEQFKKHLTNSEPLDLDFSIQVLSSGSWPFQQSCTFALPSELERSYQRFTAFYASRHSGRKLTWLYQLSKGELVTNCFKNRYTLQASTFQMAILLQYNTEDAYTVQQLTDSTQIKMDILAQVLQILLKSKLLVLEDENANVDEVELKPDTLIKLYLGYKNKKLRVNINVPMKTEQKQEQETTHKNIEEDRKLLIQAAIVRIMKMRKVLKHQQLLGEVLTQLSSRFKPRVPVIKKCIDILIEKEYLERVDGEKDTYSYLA
T3 sequence (P62877 whole entry): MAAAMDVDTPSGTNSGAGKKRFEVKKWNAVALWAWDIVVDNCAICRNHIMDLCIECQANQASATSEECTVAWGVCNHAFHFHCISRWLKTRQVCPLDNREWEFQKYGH

Row | Substance | binding to the APC/C (pull-down) (APC/C (APC11)) | binding to Cullin 1 (pull-down) (Cullin 1) | binding to RBX1 (pull-down) (RBX1) | inhibition of APC/C activity in vitro compared with TAME (APC/C; 3 independent assays) | inhibition of APC/C activity in vitro (ubiquitinated securin) (APC/C) | cell fate (cell death) (hTERT RPE-1 cells) | effect on mitosis (length of mitosis) (hTERT RPE-1 cells)
1 | Ac-cyclo(4,11)-EWPraZIKEIQRXRRA-NH2 (Ac-EW[Pra][R8]IKEIQR[S5]RRA-NH2; staple 4-11; SMILES C#CC[C@H](NC(=O)[C@H](Cc1c[nH]c2ccccc12)NC(=O)[C@H](CCC(=O)O)NC(C)=O)C(=O)N[C@]1(C)CCCCCCC=CCCC[C@@](C)(C(=O)N[C@@H](CCCNC(=N)N)C(=O)N[C@@H](CCCNC(=N)N)C(=O)N[C@@H](C)C(N)=O)NC(=O)[C@H](CCCNC(=N)N)NC(=O)[C@H](CCC(N)=O)NC(=O)[C@H]([C@@H](C)CC)NC(=O)[C@H](CCC(=O)O)NC(=O)[C@H](CCCCN)NC(=O)[C@H]([C@@H](C)CC)NC1=O) [G3-6Pra] | binds to the APC/C | does not bind | does not bind |  |  |  | 
2 | Ac-cyclo(5,9)-RWPPraXKWDXQVRRW-NH2 (Ac-RWP[Pra][S5]KWD[S5]QVRRW-NH2; staple 5-9; SMILES C#CC[C@H](NC(=O)[C@@H]1CCCN1C(=O)[C@H](Cc1c[nH]c2ccccc12)NC(=O)[C@H](CCCNC(=N)N)NC(C)=O)C(=O)N[C@@]1(C)CCCC=CCCC[C@@](C)(C(=O)N[C@@H](CCC(N)=O)C(=O)N[C@H](C(=O)N[C@@H](CCCNC(=N)N)C(=O)N[C@@H](CCCNC(=N)N)C(=O)N[C@@H](Cc2c[nH]c3ccccc23)C(N)=O)C(C)C)NC(=O)[C@H](CC(=O)O)NC(=O)[C@H](Cc2c[nH]c3ccccc23)NC(=O)[C@H](CCCCN)NC1=O) [G3-1Pra] | binds to the APC/C (APC2 and APC11) | almost does not bind |  |  |  |  | 
3 | Ac-cyclo(5,9)-RWPQXKWDXQVRRW-NH2 (Ac-RWPQ[S5]KWD[S5]QVRRW-NH2; staple 5-9; SMILES CC(=O)N[C@@H](CCCNC(=N)N)C(=O)N[C@@H](Cc1c[nH]c2ccccc12)C(=O)N1CCC[C@H]1C(=O)N[C@@H](CCC(N)=O)C(=O)N[C@@]1(C)CCCC=CCCC[C@@](C)(C(=O)N[C@@H](CCC(N)=O)C(=O)N[C@H](C(=O)N[C@@H](CCCNC(=N)N)C(=O)N[C@@H](CCCNC(=N)N)C(=O)N[C@@H](Cc2c[nH]c3ccccc23)C(N)=O)C(C)C)NC(=O)[C@H](CC(=O)O)NC(=O)[C@H](Cc2c[nH]c3ccccc23)NC(=O)[C@H](CCCCN)NC1=O) [G3-1] | binds specifically to the APC/C |  |  | inhibit APC/C in vitro more efficiently than TAME |  |  | 
4 | cyclo(1,14)-[L 2-NaI L W K W E W E K R K p P] (cyclo(L[2Nal]LWKWEWEKRK[dP]P); SMILES CC(C)C[C@@H]1NC(=O)[C@H](Cc2ccc3ccccc3c2)NC(=O)[C@H](CC(C)C)NC(=O)[C@@H]2CCCN2C(=O)[C@H]2CCCN2C(=O)[C@H](CCCCN)NC(=O)[C@H](CCCNC(=N)N)NC(=O)[C@H](CCCCN)NC(=O)[C@H](CCC(=O)O)NC(=O)[C@H](Cc2c[nH]c3ccccc23)NC(=O)[C@H](CCC(=O)O)NC(=O)[C@H](Cc2c[nH]c3ccccc23)NC(=O)[C@H](CCCCN)NC(=O)[C@H](Cc2c[nH]c3ccccc23)NC1=O) [G2-6] |  |  |  |  | the most potent molecule from item (f); also recorded: inhibit APC/C in vitro the most effectively compared to other molecules of item (f) | causes cell death; also recorded: mitotic or subsequent cell death | prolongs mitosis; also recorded: causes prolonged mitosis
